Assay: soluble on expression in E. coli; label from the status in PepcDB or PDB records

| Sequence | soluble on expression in E. coli |
| --- | --- |
| MGSDKIHHHHHHMSSEQIIASLKELVATPENPGKVLTDPADLDNYGKDWTKIYPPKPLAIVLPKTTEQVQALVKFANENQVALVPSGGRTGLSAGAVAANGEVVVAFDNMNQILDFNASDRTVRCQAGVVTEQLQTFAEENGLYYPVDFASAGSSQLGGNLSTNAGGIKVIRWGMSRDWVAGLKVVTGKGDVLDLNKDLAKNNTGYDLRHLFIGAEGTLGFITEATMKLTRKPDDLTVLVLGLNDLTNTMDVLQAFQKKLDLTAYEFFSHQAMGHVLAHGQVQAPFETEAPYYALLEFEAVSDQVMDDAMALFEQCVEEGWVLDGVISQSETQAQNLWQLRERISESIAPRIPYKNDISVVVSKVPGFLQEIDNVVTEHYPDFEIIWFGHIGDGNLHLNILKPEDMAKEDFFEKCQQVNKWVFEIVERYQGSVSAEHGVGMTKKPYLQYTRSEAEIAYLRGIKQVFDPNNIMNPGKIFD | not soluble |
| MQPSFRIVADGTDVTQRLNDRLLKLTLLDKPGMESDSLTLRIDDRDGQVALPRRGAVLEVHLGYAGEPLMRMGRFTVDTLQWAGPPDCLTVTAKAGDMRGSGKTIRSGGWEGTTLAQVCRDVGARNGWRVECPLQVAIARVDQVNESDYHFVTRLARQYDCTAKLAEGMLMVLPRQSGQSATGRRIEPLVLGRADVGSFDVTFDDRSLMRTVKTRYQLPGSGEVKSVELKNPKAPATAMGEHVDRHLYTSRGEAEQAAKARLASFSRSSASVRLELPGRGDLFAERSLLLQGFKAGIDGEFLIDSVEHTYSSSGWTTVVQCNGGRGGKG | not soluble |
| MSLRSDLINALYDENQKYDVCGIISAEGKIYPLGSDTKVLSTIFELFSRPIINKIAEKHGYIVEEPKQQNHYPDFTLYKPSEPNKKIAIDIKTTYTNKENEKIKFTLGGYTSFIRNNTKNIVYPFDQYIAHWIIGYVYTRVATRKSSLKTYNINELNEIPKPYKGVKVFLQDKWVIAGDLAGSGNTTNIGSIHAHYKDFVEGKGIFDSEDEFLDYWRNYERTSQLRNDKYNNISEYRNWIYRGRK | soluble |
| MHHHHHHSSGVDLGTENLYFQSNAMEPFKHPIAILGAGSWGTALALVLARKGQKVRLWSYESDHVDEMQAEGVNNRYLPNYPFPETLKAYCDLKASLEGVTDILIVVPSFAFHEVITRMKPLIDAKTRIAWGTKGLAKGSRLLHEVVATELGQVPMAVISGPSLATEVAANLPTAVSLASNNSQFSKDLIERLHGQRFRVYKNDDMIGVELCGSVKNILAIATGISDGLKLGSNARAALITRGLTEMGRLVSVFGGKQETLTGLAGLGDLVLTCTDNQSRNRRFGLALGEGVDKKEAQQAIGQAIEGLYNTDQVHALAQKHAIEMPLTFQVHRILHEDLDPQQAVQELLERSPKAE | soluble |
| MAHHHHHHMRANPIERRKERETALSVRQRELEELRQRKAQLGEELGMELSALEGDNLAAAFPVIQYCGSRPKKDAKKIPVESLGSVMNQFEIAIKAISQNNRDIEQQITDLNRTIGVEAQRFTKLKRHSKELADATGVSLDPNAVQHLAGKSRDGEDCSGGLKELEETTVVLEERKALVEKEIRAARQLVKKKEEAVLAMSSALESRQEEIDQLNRLYNDIRVVDRDIKCEKETLREIISEHDIVDTKLNEAIERNVSRTRLLIEQGINEIKTEIADSVSVSRRGQERVMKAQEFRIDQLEKRLDCINKALKNNHLTRDVEAIVSHKWAAAGDALVAATPDESMYDIEAIIPPQERCHPAIYNLLLTEKERLARRISLLGIIAKEKKEVIDALACKAEALARECQQAIQELDHVASAAAYEEEMQRVEAMEYIQKQRLHYSDLFKEMWKLKTKNQGPLWRAY | not soluble |
| MGSDKIHHHHHHMSKDCTIQDVFHRFYSSFESTHSISPAQRKAAYHIMNCKTGAFGVNVSVCEDCGCISVHYNSCRDRCCPMCQEFPKEKWVDARREDILDAPYFHVVFTVPEELNPIIYSNQKFLYAALYHAASDTLSELAADSKYLGTDIGYICILHTWGSTMNFHPHIHAIVLGGGLDVKNHWKDNGKDFFLPIKVISKTFRGKYMAELKQLWENDRLEFHGSAAPYKNHYTFKELLNTCYAKEWIPYCKKPFDGAESVIRYLGKYTHRIAISNYRIKDMTESTVTFSAKDYKNQGLWKEITISGEEFIRRFLMHVPPKRFVRIRHYGLLSSRNKKKKITLCRNILGCKKYISKLKDMDAPAIIRLLYNKDICKCSSCGGKIIPLPTEQHFIKPKPHMLC | not soluble |
| MMVVKVKMLYWVDEVGGRAESMEIELKPFGYRTAPITQWEVLIAAEDVEVEKGKPVIVRVEPVFLPGNTLVGPLSIMRHALGTLVDVVECGVPGRVEDEKCISRVLFLPVEDGVIKKGDMVGVLKVFYIKTGLLTRILGLEPPKVELKKGFHEANIVWRDNGNIYREPAKVTILGYMRSHIGVWELLVADETVRVKRGDVLRIRIKEVRLPPNTVVVPLPVMRNAFGTVLDVVQLGKPSRVEEEKTLHQAIFLAVEDGVIEEGDLIGVINVYYVGLGDFKPLVQDKPPQKVRIVYRSGDGIVKREVEVEPFGYRRSPVGKWEALIADESKPVRYGEPVVVKVKRVRVPPKTILYPLHIMRHAYGTVADVFCDCKPWKVEEGGEIKKVVFLPVMDGEIKEGELLGIINLHDVELSPLGRVRQWLDNWLTEMGRTFDEGDWPLWLEHHHHHH | soluble |
| SEEYHRHCDEVGFNAEEAHNIVKECVDGVLGGEDYNHNNINQWTASIVEQSLTHLVKLGKAYKYIVTCAVVQKSAYGFHTASSCFWDTTSDGTCTVRWENRTMNCIVNVFAIAIVL | soluble |
| MGSDKIHHHHHHMMSRPIILGIVGDSAAGKTTLTRGIAQVLGPENVTLICTDDYHRYDRQQRAEIGITALHPDCNHLDIMQQHLSLLRTGQPILKPVYSHKTGSFEPPQYIKPNKFVIIEGLLGYSTRAARDCYDVKVYLAPPENLRAKWKVKRDTQKRGYTPEQVLAELEKREPDSEQFIRPQRQWSDIVVSFYPPHEDGDETNGHLNVRLVLRPTIPHPDFTSIINLTNGSSVSAIRLGLDRDMSKPVDVLEVDGHATLEQVNKLEHILCSDMPYLSSVCDRESNPELGKIAGTTGETLQSYPLALTQLIITYHMLKATQIYQ | not soluble |
| MKKVRKLYEGKAKIVYETDEKDKLILEFKDVATAFDGVKKEEIKGKGSLNNEISSLIFEILEDHGIKTHYIKKLSDREMLVWRAERFPVEVVVRNYAAGSFVKRYGVKEGTKLEQPLVEFFMKSDELHDPMVCINHIKVLKLAPAELVPEMEKIALKVNEILKKIFEEKGILLVDFKLEFGRLPSGELAIVDEISPDSMRLWDKSTGENWIKTDSV | soluble |
| MPPKIAEVIQHDVCAACGACEAVCPIGAVTVKKAAEIRDPNDLSLYEKGAAFQVCEGCLTCSRICPVVDGFIENELLNVRKFFGAKSKDNAGSQDGGVTSGILKALFNKGEIDCAVGITRNENWEPEVVLLTSAEDVERTRGTKYTSDPVVAALREAFEKYDRIAVVGVPCQAHAARLIRENVNEKIVLIIGLLCMESFHHDVMLDKIIPEIMKVNVRDIVKMEFTKGKFWVYTKDGEVHSVPIKDIAKYARNPCHHCCDYTSVFADISVGSVGAPDGWNSVFIRTEIGEKYFDMVRDEMEIMEDPKPGLELVGKLIEMKRKGNAEHFQEVCKEFSFETGIRSETVLEHHHHHH | soluble |
| MLRALRGAADLLSTALYKNEMMMSRRYLSTPAPEPAKPSSEETTESTEPATSVEDAGEPMKEKRITQPYSSEALTKLKLDQYPLYVEREWWKTGKRMTFWASWRQLRDVKRREQIQEVGADRMRLKAIKFNTILPQAIRDEAAEKMQKARKYDHPRLILNMCQFTGRQRGKIKPYRLSRHLFRRFADRSALSGVQRAMW | not soluble |
| MRVHVPAQDAREAVRQAAATTGDADVLSETDRRLLATAHELDGTLVSDDYAMQNVAAELAVTVESISQDGITERRDWRLQCQGCGREFDDTDHDRCPVCGSPLERKNPSLEHHHHHH | not soluble |
| APPSSFSAAKQQAVKIYQDHPISFYCGCDIEWQGKKGIPNLETCGYQVRKQQTRASRIEWEAVVPAWQFGHHRQCWQKGGRKNCSKNDQQFRLMEADLHNLTPAIGEVNGDRSNFNFSQWNGVDGVSYGRCEMQVNFKQRKVMPPDRARGSIARTYLYMSQEYGFQLSKQQQQLMQAWNKSYPVDEWECTRDDRIAKIQGNHNPFVQQSCQTQ | soluble |
| MSLDYGINFWSDNDFIIEDGQVKINYKTKPAIIDIVKKVREEGYRGPLLLRFPHLIKKQVDKIFTHFETSIKQYHYKGQFKAVFPLKVNQFPNFVLPLVELSQNRCYGLEAGSKAELIIAMAYTNKGSPITVNGFKDKEMISLGFIAANMGHEITLTIEGLNELETIIEVAEEMGKPCPNIGLRIRLHSSGIGIWAKSGGINSKFGLTSTELLEGIRLLEKHKLIEKFTMIHFHIGSQISDISPLKKAMREAGNIYAELRKMGAKNLKSVNIGGGLAVEYTQHEGSPNRNYTLDEFAGDVVFSLKEIAKNKKEPEPDIYIESGRYIAASHALLVAPVLELFSQEYDEKALHLKDKNPQLIEELNELYNTVNEKYAIEYLHDSLDHMESLLTLFDLGYIDLQDRSNTEILVHLIIKKVIKILKHKNHSDIIRIQEQVQERYLLNCSFFQSLPDYWGLEQSFPVMPLDRLNKRPTRSASLWDITCDSDGEIGFDLNKPLFLHDVDVTTEEYFLGFFLVGAYQEVLGMRHNLFTHPTELSVEFEEDGTHSVTNLLEAQTILDVLDDLDYDTKEIERRLKQRIEDSELIDDETRKEVLGQLYVMLSENGYLRTITNGEGHHHHHH | soluble |
| KRSKVLSQASKNAEQFEDKFWSGTDLSQLYQKVKGRKDEIAGTEEIFFAGFTEFARLRKSNANSPAYIMEGTGRAMRVAVAREVDELETS | not soluble |
| MSLDQAIRRNPNVPVVVRGWLHKQDSSGMRLWKRRWFVLADYCLFYYKDSREEAVLGSIPLPSYVISPVAPEDRISRKYSFKAVHTGMRALIYNSSTAGSQAEQSGMRTYYFSADTQEDMNAWVRAMNQAAQVLSRSSLKRDMEKVERQAVPQANHTEGHHHHHH | soluble |
| MSLIKLVAIDLDGTLLNSQKEISLRNKQALMAAKQAGVKVVICTGRPLAAIGPYLEELGLQDEGDYSITFNGGLVQKNDTGAIIEKTLMPLEAIHELYQLATTLNMPFDVLSDEVVMQLPSAPNYPSIYSSLNKLLTFESYKLEELTPNRIYNKVVVAIDEAYLNERIKEIPASFYERFEIIKTRNNLLEFMPKGITKAYGISLLAKDLGIRAEEIMTLGDEENDLPMIEYAGLGVAMANAIPLVKEAADVVTDTNDQDGVAKAVEKYILTPLEGGEGHHHHHH | soluble |
| MGSDKIHHHHHHMTTNNASPEAGHIMQTRTVDLDGQVLRVGIRPGSGDLPPLLMFNGIGANLELVEPFVDALPDVEVIIFDIPGAGGSPAPLFPYRFSNLCVMADKLLSHLGYAGPVDTLGVSWGGALAQEFARLYPQRCRRLVLAATSPGVLMVPGSPSVLTKMIGIRRYTDAEYLRRVGGDIYGGAFRDDPSLLDVHGGHMRPPRGRGYLYQLLAAWGWSSLPWLRALKQRTLVLHGSDDPIVPLINAKILSGCIPDSALHVFHDDGHLFLLTAARESARVVGEFLREGR | not soluble |
| MTPIPLINIPLCNLAGDGYILSEKSQSQNMLRGIVMSETVRVGLLGYGYASKTFHAPLIAGTAGMELVAVSSSNAEKVHADWANLRVEKDPQALFSDPDIDLIVIPTPNDTHFPLAKQALEAGKHVVVDKPFTVTLSQAYDLGAIAERAGKVLSVFHNRRWDSDFLTLKQLLSAGTLGNVVYMESHFDRFRPEVRQRWREDGSEGSGIWYDLGPHLLDQALELFGLPVAIQVDMAQLRPGSKATDYFHATLIYPQRRVILHASMLVAAASARYTVHGTRGSFVKYGLDPQEDRLKAGERPPLADWGQDKHDGVLTLSRDGITAEQTIATIPGNYPAYYAAVRDALLGKGENPVGVNQAIQVMELIELGLLSHEQKKAVALKNSLEHHHHHH | not soluble |
